From article PMC6079010 come the findings set out here.

The assay addresses catalytic domain of KAT2A (as crystallised, apo and with succinyl-CoA). As to the kind of experiment: crystal structure; apo (space group P4_(1)2_(1)2) and succinyl-CoA-complexed (P2_(1)3) crystals of the catalytic domain, grown at pH 4.6; octahedral assembly seen in both.

Usually stoichiometry N stands for a count of units in the complex or per binding partner. As to “catalytic domain of KAT2A (as crystallised, apo and with succinyl-CoA) (domain or fragment)”, the stoichiometry N turned out to be 24.
